# B1: SLC35F2 (parent)
# chain: QYLAERYKVNTPMLQSFINYCLLF
# Variants of: B1
# Test: protein stability index of a GFP-peptide fusion (GPS, HEK-293T) (PSI 1-6); higher = more stable
# Settings: c terminus: a fixed tail appended
# 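Further: lentivirally expressed fusions sorted by FACS into six bins by GFP to DsRed ratio, PSI derived from sequencing read proportions per bin multiplied by bin number.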
row,Variant,protein stability index
1,I18H,2.9
2,I18L,2.96
3,I18F,1.98
4,I18Q,2.48
5,I18M,2.56
6,I18S,2.34
7,I18N,2.1
8,I18G,1.92
9,I18Y,2.15
10,I18E,2.75
11,I18K,1.99
12,I18A,1.93
13,I18W,2.53
14,I18V,1.34
15,I18T,2.82
16,I18D,3.29
17,I18C,3.62
18,I18P,3.3
19,I18R,3.24
20,L14Y,3.03
21,L14Q,3.39
22,L14G,2.08
23,L14W,2.4
24,L14S,1.87

row,Variant,protein stability index
1,L14E,2.45
2,L14K,2.38
3,L14F,1.69
4,L14N,2.12
5,L14R,2.66
6,L14T,2.65
7,L14I,2.73
8,L14P,2.12
9,L14M,3.31
10,L14A,2.37
11,L14V,2.31
12,L14H,2.11
13,L14D,2.82
14,L14C,2.03
15,N19A,3.55
16,N19E,2.22
17,N19D,2.49
18,N19F,2.49
19,F17E,2.3
20,F17K,2.65
21,F17S,3.47
22,F17T,2.45
23,F17C,3.45
24,F17G,2.45

row,Variant,protein stability index
1,F17W,1.6
2,F17A,1.76
3,F17Y,2.14
4,F17Q,2.34
5,F17D,1.82
6,F17H,3.26
7,F17P,1.8
8,F17V,3.29
9,F17I,3
10,F17R,3.78
11,F17N,2.12
12,F17M,3.02
13,T11G,2.28
14,T11R,2.57
15,T11A,2.13
16,T11D,2.63
17,T11M,2.69
18,T11V,2.5
19,T11C,3.08
20,T11S,2.65
21,T11N,2.71
22,T11P,1.8
23,T11Y,3.51
24,T11Q,2.96

row,Variant,protein stability index
1,T11K,2.21
2,T11H,2.19
3,T11E,2.27
4,T11I,2.6
5,T11W,2.12
6,T11F,2.04
7,T11L,2.89
8,P12Q,1.7
9,P12L,3.97
10,P12H,3.1
11,P12C,3.04
12,P12W,1.29
13,P12S,2.35
14,P12G,2.73
15,P12N,2.72
16,P12K,1.74
17,P12I,3.44
18,P12R,3.12
19,P12A,4.77
20,P12F,3.15
21,P12M,3.68
22,P12T,2.54
23,P12D,3.1
24,P12Y,3.33

row,Variant,protein stability index
1,P12E,2.52
2,Q15P,3.78
3,Q15N,2.61
4,Q15A,2.71
5,Q15M,2.15
6,Q15F,3.17
7,Q15D,3.24
8,Q15R,2.29
9,Q15W,2.83
10,Q15G,3.36
11,Q15Y,3.21
12,Q15V,2.86
13,Q15S,3.63
14,Q15K,1.28
15,Q15L,3.28
16,Q15E,3.23
17,Q15C,2.95
18,Q15H,2.23
19,Q15T,3.41
20,Q15I,1.67
21,M13W,1.9
22,M13F,2.34
23,M13V,3.22
24,M13C,3.76

row,Variant,protein stability index
1,M13N,3.77
2,M13T,2.74
3,M13P,2.69
4,M13Y,2.4
5,M13E,2.99
6,M13Q,2.02
7,M13R,2.64
8,M13A,3.48
9,M13S,2.93
10,M13G,2.2
11,M13K,2.04
12,M13D,2.2
13,M13L,1.83
14,M13H,2.59
15,M13I,2.52
16,S16A,2.43
17,S16C,2.44
18,S16F,2.11
19,S16P,3.19
20,S16W,1.87
21,S16R,2.63
22,S16V,3.01
23,S16Q,1.65
24,S16T,1.72

row,Variant,protein stability index
1,S16K,2.76
2,S16D,3
3,S16H,1.83
4,S16I,3
5,S16N,2.36
6,S16E,2.19
7,S16G,2.22
8,S16L,3.45
9,S16Y,1.79
10,N10P,1.68
11,N10W,2.29
12,N10G,2.54
13,N10I,2.88
14,N10Q,1.87
15,N10Y,2.75
16,N10H,2.71
17,N10L,3.17
18,N10V,2.92
19,N10R,1.85
20,N10T,2.51
21,N10S,2.36
22,N10K,2.14
23,N10M,2.96

# Source: the supplement of paper PMC10567573
